{
  "source": "patent US20260146099A1",
  "about": "(SELVAX, published 2026)",
  "key": {"[1]": {"molecular_target": "Recombinant canine CD40 extracellular domain with human IgG1 Fc domain tag (canine; human) (UniProt Q7YRL5)", "experiment": "SPR (Biacore T200), single-cycle kinetics, canine CD40-Fc immobilised, antibody 2-32 nM as analyte, bivalent analyte model, first site, average n=5"}, "[2]": {"molecular_target": "T1, Recombinant canine CD40/TNFRSF5 protein (his tag) (canine, UniProt Q7YRL5 21-194)", "T1 construct": "Sino Biological 70105-D08H, expressed in a human cell line from Met1-Ala194; signal peptide Met1-Pro20 predicted cleaved; also called antigen; StP1a (canine CD40)", "T1 sequence": "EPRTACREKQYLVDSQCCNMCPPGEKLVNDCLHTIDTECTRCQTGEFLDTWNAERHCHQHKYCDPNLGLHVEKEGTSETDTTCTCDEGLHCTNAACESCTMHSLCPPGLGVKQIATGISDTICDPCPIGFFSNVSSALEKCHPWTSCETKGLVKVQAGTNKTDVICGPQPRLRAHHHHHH", "experiment": "ELISA, absorbance on StP1a over absorbance on Irrelevant His Tag (RgN3a)"}, "[3]": {"molecular_target": "T2, Recombinant canine CD40 extracellular domain with human IgG1 Fc domain tag (canine; human, UniProt Q7YRL5 21-194)", "T2 construct": "extracellular domain; Amine-coupled to a CM5 chip; also called caCD40-Fc; canine CD40-Fc; not shown: human IgG1 Fc domain tag", "T2 sequence (looked up)": "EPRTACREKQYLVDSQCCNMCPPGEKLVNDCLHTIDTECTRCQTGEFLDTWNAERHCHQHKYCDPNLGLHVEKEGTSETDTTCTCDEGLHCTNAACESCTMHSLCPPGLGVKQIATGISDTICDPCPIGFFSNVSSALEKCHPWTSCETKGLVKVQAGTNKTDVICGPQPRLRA", "experiment": "SPR (Biacore T200), single-cycle kinetics, canine CD40-Fc immobilised, antibody 2-32 nM as analyte, bivalent analyte model, first site, average n=5", "protocol": "(§1) Recombinant canine CD40 extracellular domain with human IgG1 Fc domain tag (canine CD40-Fc) was immobilised to the surface of a Series S Sensor Chip CM5 using an Amine Coupling Kit. The reference surface for analysis was prepared by immobilising human IgG1 isotype control antibody to the Series S Sensor Chip CM5 using the same method.\n(§2) Kinetics/affinity analysis was carried out using the Biacore method for single-cycle kinetics. Running buffer was HBS-EP+ buffer, pH 7.4. Injection parameters were sample contact time: 180 seconds, dissociation: 600 seconds, flow rate: 30 μl/min. The concentrations of purified anti-dog CD40 antibodies used for kinetics analysis were 2 nM, 4 nM, 8 nM, 16 nM and 32 nM. Regeneration was with 50 mM NaOH for 30 seconds at 30 μl/min. Experimental data was fitted to a bivalent analyte binding model."}, "[4]": {"molecular_target": "T2, Recombinant canine CD40 extracellular …", "experiment": "SPR (Biacore T200), single-cycle kinetics, canine CD40-Fc immobilised, antibody 2-32 nM as analyte, bivalent analyte model, first site, average n=6", "protocol": "as §1\nas §2, with “chimeric anti-CD40” for “purified anti-dog CD40”"}, "[5]": {"molecular_target": "T2, Recombinant canine CD40 extracellular …", "experiment": "SPR (Biacore T200), single-cycle kinetics, canine CD40-Fc immobilised, antibody 2-32 nM as analyte, bivalent analyte model, first site, average n=5", "protocol": "as §1\nas §2, with “chimeric anti-CD40” for “purified anti-dog CD40”", "remark": "listed apart in the source"}, "[6]": {"molecular_target": "T1, Recombinant canine CD40/TNFRSF5 protein …", "experiment": "ELISA, absorbance on StP1a over absorbance on Irrelevant His Tag (RgN3a)", "remark": "listed apart in the source"}},
  "note": "Read-outs that look alike come from different tables or passages of the source.",
  "data": [
    {"molecule": "anti-human CD40 antibody 21.4.1", "values": [
      {"measurement": "Kd", "setting": "[1]", "value": 257, "unit": "nM"},
      {"measurement": "koff", "setting": "[1]", "value": 0.0143, "unit": "s⁻¹"},
      {"measurement": "kon", "setting": "[1]", "value": 58000, "unit": "M⁻¹ s⁻¹"}
    ]},
    {"molecule": "StP1.RD1.G9.H5 (antibody, V domains shown, also called purified monoclonal antibody from hybridoma cell-line StP1.RD1.G9.H5) VH: QVQLQQSGPELVQPGASVKISCRASGYSFTSYYIHWVKQRPGQGLEWIGWIFPGSGNTKYNEKFRGKATLTADTSSSTAYTQVSSLTSEDSAVYFCARKSPYGNYAMDYWGQGTSVTVSS VL: DILLTQSPAILSVSPGERVSFSCRASQSIGTSIHWYQQRTNGSPRLLIKSASESISGIPSRFSGSGSGTDFTLSINSVESEDIADYYCQQSNSWPYTFGGGTKLEIKRADAAPTVS", "values": [
      {"measurement": "positive:negative ratio", "setting": "[2]", "value": 12.4},
      {"measurement": "Kd", "setting": "[3]", "value": 5.24, "unit": "nM"},
      {"measurement": "koff", "setting": "[3]", "value": 0.00157, "unit": "s⁻¹"},
      {"measurement": "kon", "setting": "[3]", "value": 312000, "unit": "M⁻¹ s⁻¹"},
      {"measurement": "Kd", "setting": "[4]", "value": 2.85, "unit": "nM"},
      {"measurement": "koff", "setting": "[4]", "value": 0.00106, "unit": "s⁻¹"},
      {"measurement": "kon", "setting": "[4]", "value": 372000, "unit": "M⁻¹ s⁻¹"}
    ]},
    {"molecule": "SVX-2001A (antibody, also called chimeric dog IgGA, k antibody derived from StP1.RD1.G9.H5) heavy: QVQLQQSGPELVQPGASVKISCRASGYSFTSYYIHWVKQRPGQGLEWIGWIFPGSGNTKYNEKFRGKATLTADTSSSTAYTQVSSLTSEDSAVYFCARKSPYGNYAMDYWGQGTSVTVSSASTTAPSVFPLAPSCGSTSGSTVALACLVSGYFPEPVTVSWNSGSLTSGVHTFPSVLQSSGLHSLSSMVTVPSSRWPSETFTCNVVHPASNTKVDKPVFNECRCTDTPPCPVPEPLGGPSVLIFPPKPKDILRITRTPEVTCVVLDLGREDPEVQISWFVDGKEVHTAKTQSREQQFNGTYRVVSVLPIEHQDWLTGKEFKCRVNHIDLPSPIERTISKARGRAHKPSVYVLPPSPKELSSSDTVSITCLIKDFYPPDIDVEWQSNGQQEPERKHRMTPPQLDEDGSYFLYSKLSVDKSRWQQGDPFTCAVMHETLQNHYTDLSLSHSPGK light: DILLTQSPAILSVSPGERVSFSCRASQSIGTSIHWYQQRTNGSPRLLIKSASESISGIPSRFSGSGSGTDFTLSINSVESEDIADYYCQQSNSWPYTFGGGTKLEIKRNDAQPAVYLFQPSPDQLHTGSASVVCLLNSFYPKDINVKWKVDGVIQDTGIQESVTEQDKDSTYSLSSTLTMSSTEYLSHELYSCEITHKSLPSTLIKSFQRSECQRVD", "values": [
      {"measurement": "Kd", "setting": "[5]", "value": 1.85, "unit": "nM"},
      {"measurement": "koff", "setting": "[5]", "value": 0.000659, "unit": "s⁻¹"},
      {"measurement": "kon", "setting": "[5]", "value": 370000, "unit": "M⁻¹ s⁻¹"}
    ]},
    {"molecule": "SVX-2001D (antibody, also called chimeric dog IgGD, k antibody derived from StP1.RD1.G9.H5) heavy: QVQLQQSGPELVQPGASVKISCRASGYSFTSYYIHWVKQRPGQGLEWIGWIFPGSGNTKYNEKFRGKATLTADTSSSTAYTQVSSLTSEDSAVYFCARKSPYGNYAMDYWGQGTSVTVSSASTTAPSVFPLAPSCGSTSGSTVALACLVSGYFPEPVTVSWNSGSLTSGVHTFPSVLQSSGLYSLSSTVTVPSSRWPSETFTCNVVHPASNTKVDKPVPKESTCKCISPCPVPESLGGPSVFIFPPKPKDILRITRTPEITCVVLDLGREDPEVQISWFVDGKEVHTAKTQPREQQFNSTYRVVSVLPIEHQDWLTGKEFKCRVNHIGLPSPIERTISKARGQAHQPSVYVLPPSPKELSSSDTVTLTCLIKDFFPPEIDVEWQSNGQPEPESKYHTTAPQLDEDGSYFLYSKLSVDKSRWQQGDTFTCAVMHEALQNHYTDLSLSHSPGK light: DILLTQSPAILSVSPGERVSFSCRASQSIGTSIHWYQQRTNGSPRLLIKSASESISGIPSRFSGSGSGTDFTLSINSVESEDIADYYCQQSNSWPYTFGGGTKLEIKRNDAQPAVYLFQPSPDQLHTGSASVVCLLNSFYPKDINVKWKVDGVIQDTGIQESVTEQDKDSTYSLSSTLTMSSTEYLSHELYSCEITHKSLPSTLIKSFQRSECQRVD", "values": [
      {"measurement": "Kd", "setting": "[5]", "value": 2.6, "unit": "nM"},
      {"measurement": "koff", "setting": "[5]", "value": 0.000932, "unit": "s⁻¹"},
      {"measurement": "kon", "setting": "[5]", "value": 359000, "unit": "M⁻¹ s⁻¹"}
    ]},
    {"molecule": "SVX-2001C (antibody, also called chimeric dog IgGC, k antibody derived from StP1.RD1.G9.H5) heavy: QVQLQQSGPELVQPGASVKISCRASGYSFTSYYIHWVKQRPGQGLEWIGWIFPGSGNTKYNEKFRGKATLTADTSSSTAYTQVSSLTSEDSAVYFCARKSPYGNYAMDYWGQGTSVTVSSASTTAPSVFPLAPSCGSQSGSTVALACLVSGYIPEPVTVSWNSVSLTSGVHTFPSVLQSSGLYSLSSMVTVPSSRWPSETFTCNVAHPATNTKVDKPVAKECECKCNCNNCPCPGCGLLGGPSVFIFPPKPKDILVTARTPTVTCVVVDLDPENPEVQISWFVDSKQVQTANTQPREEQSNGTYRVVSVLPIGHQDWLSGKQFKCKVNNKALPSPIEEIISKTPGQAHQPNVYVLPPSRDEMSKNTVTLTCLVKDFFPPEIDVEWQSNGQQEPESKYRMTPPQLDEDGSYFLYSKLSVDKSRWQRGDTFICAVMHEALHNHYTQISLSHSPGK light: DILLTQSPAILSVSPGERVSFSCRASQSIGTSIHWYQQRTNGSPRLLIKSASESISGIPSRFSGSGSGTDFTLSINSVESEDIADYYCQQSNSWPYTFGGGTKLEIKRNDAQPAVYLFQPSPDQLHTGSASVVCLLNSFYPKDINVKWKVDGVIQDTGIQESVTEQDKDSTYSLSSTLTMSSTEYLSHELYSCEITHKSLPSTLIKSFQRSECQRVD", "values": [
      {"measurement": "Kd", "setting": "[5]", "value": 3.36, "unit": "nM"},
      {"measurement": "koff", "setting": "[5]", "value": 0.00172, "unit": "s⁻¹"},
      {"measurement": "kon", "setting": "[5]", "value": 519000, "unit": "M⁻¹ s⁻¹"}
    ]},
    {"molecule": "SVX-2001B (antibody, also called chimeric dog IgGB, k antibody derived from StP1.RD1.G9.H5) heavy: QVQLQQSGPELVQPGASVKISCRASGYSFTSYYIHWVKQRPGQGLEWIGWIFPGSGNTKYNEKFRGKATLTADTSSSTAYTQVSSLTSEDSAVYFCARKSPYGNYAMDYWGQGTSVTVSSASTTAPSVFPLAPSCGSTSGSTVALACLVSGYFPEPVTVSWNSGSLTSGVHTFPSVLQSSGLYSLSSMVTVPSSRWPSETFTCNVAHPASKTKVDKPVPKRENGRVPRPPDCPKCPAPEMLGGPSVFIFPPKPKDTLLIARTPEVTCVVVDLDPEDPEVQISWFVDGKQMQTAKTQPREEQFNGTYRVVSVLPIGHQDWLKGKQFTCKVNNKALPSPIERTISKARGQAHQPSVYVLPPSREELSKNTVSLTCLIKDFFPPDIDVEWQSNGQQEPESKYRTTPPQLDEDGSYFLYSKLSVDKSRWQRGDTFICAVMHEALHNHYTQESLSHSPGK light: DILLTQSPAILSVSPGERVSFSCRASQSIGTSIHWYQQRTNGSPRLLIKSASESISGIPSRFSGSGSGTDFTLSINSVESEDIADYYCQQSNSWPYTFGGGTKLEIKRNDAQPAVYLFQPSPDQLHTGSASVVCLLNSFYPKDINVKWKVDGVIQDTGIQESVTEQDKDSTYSLSSTLTMSSTEYLSHELYSCEITHKSLPSTLIKSFQRSECQRVD", "values": [
      {"measurement": "Kd", "setting": "[5]", "value": 3.36, "unit": "nM"},
      {"measurement": "koff", "setting": "[5]", "value": 0.00155, "unit": "s⁻¹"},
      {"measurement": "kon", "setting": "[5]", "value": 461000, "unit": "M⁻¹ s⁻¹"}
    ]},
    {"molecule": "StP1.RE2.D7b.B5 (antibody, V domains shown) VH: QVQLQQSGPELVKPGASVKISCKASGYSFTSYYIHWVKQSPGQGLEWIGWIFPGSGNTKYNEKFKGKATLTADTSSSTAYMQLSSLTSEDSAVYFCARRGTTRDALDYWGQGTSVTVSS VL: DILLTQSPAILSVSPGERVSFSCRASQSIGTSIHWFQQRTNGSPRVLIKYASQSISGIPSRFSGSGSGTDFTLSINSVESEDIADYYCQQSYTWPFTFGSGTKLAIKR", "values": [
      {"measurement": "positive:negative ratio", "setting": "[6]", "value": 10.8}
    ]}
  ]
}
